Measured values: patent publication US20120009190A1 (Amgen, published 2012)

What was measured:
[1] = target: mouse IL-17RA (IL-17 receptor) on ST-2 cells (mouse) (UniProt Q60943); assay: cell-based or functional assay
[2] = target: human IL-17RA on normal human foreskin fibroblasts (HFF) (human) (UniProt Q96F46); assay: cell-based or functional assay
[3] = target: T1, huIL-17.Fc (huIL17 with N-terminal flag and huFC (IgG1)) (human, UniProt Q16552 24-155); assay: flow cytometry, huIL-17.Fc staining with anti-huIgG-APC
T1 construct: also called IL-17 fused to human Fc; not shown: human IgG1 Fc (huFC)
T1 sequence (Q16552 other isoform, or with tags, fused parts or gaps limits assumed): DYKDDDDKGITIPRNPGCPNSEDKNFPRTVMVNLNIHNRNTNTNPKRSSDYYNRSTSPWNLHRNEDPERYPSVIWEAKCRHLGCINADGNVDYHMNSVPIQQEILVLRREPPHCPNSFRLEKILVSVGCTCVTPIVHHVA
Protocol: Cells were incubated with M750 or M177 anti-mouse IL-17RA followed by anti-rat PE (BD Pharmigen). To prepare huIL-17.Fc, a cDNA encoding huIL17, N-terminal flag and huFC (IgG1) was amplified by PCR and cloned into the Pdc409 vector. Secreted IL17.Fc was purified from transfected COS cells over a Protein A column and its concentration determined using a human Fc ELISA. For binding, 293 cells were blocked with anti-human IL-17RA (M202) and stained with huIL17.Fc followed by anti-hulgG-APC (Jackson Immunoresearch, West Grove, Pa.). Data were analyzed on a FACSCalibur with Cell Quest software (BD Biosciences). FRET data were obtained from three channel images using the macro of LSM FRET tool software (Zeiss AIM software, per standard techniques). A minimum of 50 regions of interest at the membrane were assessed for each condition. FRET efficiencies were calculated by the NFRET method and significance determined by t-test.

[4] = target: T2, IL-17RA FN1 domain fused to the Gal4 DNA binding domain (pGBKT7) (yeast, UniProt P04386 1-147, limits assumed); assay: yeast two-hybrid, growth on -Leu/-Trp/-Ade
T2 construct: Only the FN1 domain was used
Protocol: The IL-17RA ECD, FN2, FN2/linker and FN1 domains were fused to the Ga14 DNA binding domain (BD) or activation domain (AD) in the Pgbkt7 and Pgadat7 yeast expression plasmids (BD Clontech). S. cerevisiae were transformed by standard methods, and growth on Leu-Trp-deficient plates or Leu-Trp-Ade-deficient plates was evaluated by colony counting. CARMA1 (provided by X. Lin, MD Anderson Cancer Center, Houston Tex.) was used a positive control.
To obtain the data presented Table 1, full length (FL) IL-17RA or the FN1, FN2/linker or FN2 domains were fused to the yeast Ga14 DNA binding domain (BD) or activation domain (AD) in the pGBKT7 and pGADT7 plasmids. S. cerevisiae were transformed with the indicated pairs of plasmids and growth on Leu-Trp-deficient plates (selecting for both plasmids) or Leu-Trp-Ade-deficient plates (selecting for each plasmid and an interaction) was evaluated. CARMA1 was a positive control. FL, full length. FN, fibronectin.

mouse IL-17RA (IL-17 receptor) on ST-2 cells (mouse), sequence (Q60943 32-864): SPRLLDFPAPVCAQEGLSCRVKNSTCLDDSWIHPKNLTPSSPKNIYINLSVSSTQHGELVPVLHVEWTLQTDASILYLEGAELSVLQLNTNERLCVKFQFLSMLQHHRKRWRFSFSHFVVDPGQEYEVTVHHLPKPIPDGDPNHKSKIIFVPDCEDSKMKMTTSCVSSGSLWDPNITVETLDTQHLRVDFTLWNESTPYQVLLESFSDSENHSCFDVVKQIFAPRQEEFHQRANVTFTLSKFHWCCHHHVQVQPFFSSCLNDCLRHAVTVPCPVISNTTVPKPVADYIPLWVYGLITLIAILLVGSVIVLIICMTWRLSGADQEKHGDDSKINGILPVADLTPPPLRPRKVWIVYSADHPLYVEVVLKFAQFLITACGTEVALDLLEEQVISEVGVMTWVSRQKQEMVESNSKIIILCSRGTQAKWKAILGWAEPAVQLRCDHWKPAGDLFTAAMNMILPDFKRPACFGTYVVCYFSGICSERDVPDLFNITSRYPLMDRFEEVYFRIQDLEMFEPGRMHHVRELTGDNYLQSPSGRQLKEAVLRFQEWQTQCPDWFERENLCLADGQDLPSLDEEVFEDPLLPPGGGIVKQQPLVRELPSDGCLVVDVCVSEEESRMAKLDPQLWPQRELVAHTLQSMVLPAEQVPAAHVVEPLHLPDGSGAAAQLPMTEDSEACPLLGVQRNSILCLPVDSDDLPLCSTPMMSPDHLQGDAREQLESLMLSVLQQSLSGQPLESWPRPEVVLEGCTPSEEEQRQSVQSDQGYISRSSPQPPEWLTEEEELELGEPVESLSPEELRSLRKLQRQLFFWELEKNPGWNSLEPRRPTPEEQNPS

## muPLAD-L (murine PLAD/Linker construct, linker and FN2 of mouse IL-17RA) (from UniProt Q60943 184-283) (receptor)
[1]
  IL-6 (ELISA) from ST-2 cells + IL-17A 10 ng/ml, muPLAD-L at 3 ug/ml: 2710 pg/mL
  IL-6 (ELISA) from ST-2 cells + IL-17A 10 ng/ml, muPLAD-L at 3 ug/ml (Example 9): 182 pg/mL
  IL-6 (ELISA) from ST-2 cells + IL-17A 10 ng/ml, muPLAD-L at 10 ug/ml: 2790 pg/mL
  IL-6 (ELISA) from ST-2 cells + IL-17A 10 ng/ml, muPLAD-L at 10 ug/ml (Example 9): 110 pg/mL
  IL-6 (ELISA) from ST-2 cells + IL-17A 10 ng/ml, muPLAD-L at 30 ug/ml: 1880 pg/mL
  IL-6 (ELISA) from ST-2 cells + IL-17A 10 ng/ml, muPLAD-L at 30 ug/ml (Example 9): 110 pg/mL
  IL-6 (ELISA) from ST-2 cells + IL-17A + TNFa 2 ng/ml, muPLAD-L at 3 ug/ml: 7020 pg/mL
  IL-6 (ELISA) from ST-2 cells + IL-17A + TNFa 2 ng/ml, muPLAD-L at 10 ug/ml: 7040 pg/mL
  IL-6 (ELISA) from ST-2 cells + IL-17A + TNFa 2 ng/ml, muPLAD-L at 30 ug/ml: 7180 pg/mL
  KC (Groα) (ELISA) from ST-2 cells + IL-17A 10 ng/ml, muPLAD-L at 3 ug/ml: 5980 pg/mL
  KC (Groα) (ELISA) from ST-2 cells + IL-17A 10 ng/ml, muPLAD-L at 10 ug/ml: 5440 pg/mL
  KC (Groα) (ELISA) from ST-2 cells + IL-17A 10 ng/ml, muPLAD-L at 30 ug/ml: 6230 pg/mL
  KC (Groα) (ELISA) from ST-2 cells + IL-17A + TNFa, muPLAD-L at 3 ug/ml: 5750 pg/mL
  KC (Groα) (ELISA) from ST-2 cells + IL-17A + TNFa, muPLAD-L at 10 ug/ml: 5550 pg/mL
  KC (Groα) (ELISA) from ST-2 cells + IL-17A + TNFa, muPLAD-L at 30 ug/ml: 5500 pg/mL

## muPLAD (murine PLAD construct, FN2 of mouse IL-17RA without the linker) (from UniProt Q60943 205-283) (receptor)
[1]
  IL-6 (ELISA) from ST-2 cells + IL-17A 10 ng/ml, muPLAD at 3 ug/ml: 2240 pg/mL
  IL-6 (ELISA) from ST-2 cells + IL-17A 10 ng/ml, muPLAD at 3 ug/ml (Example 9): 155 pg/mL
  IL-6 (ELISA) from ST-2 cells + IL-17A 10 ng/ml, muPLAD at 10 ug/ml: 2530 pg/mL
  IL-6 (ELISA) from ST-2 cells + IL-17A 10 ng/ml, muPLAD at 10 ug/ml (Example 9): 125 pg/mL
  IL-6 (ELISA) from ST-2 cells + IL-17A 10 ng/ml, muPLAD at 30 ug/ml: 2040 pg/mL
  IL-6 (ELISA) from ST-2 cells + IL-17A 10 ng/ml, muPLAD at 30 ug/ml (Example 9): 108 pg/mL
  IL-6 (ELISA) from ST-2 cells + IL-17A + TNFa 2 ng/ml, muPLAD at 3 ug/ml: 6980 pg/mL
  IL-6 (ELISA) from ST-2 cells + IL-17A + TNFa 2 ng/ml, muPLAD at 10 ug/ml: 6980 pg/mL
  IL-6 (ELISA) from ST-2 cells + IL-17A + TNFa 2 ng/ml, muPLAD at 30 ug/ml: 6980 pg/mL
  KC (Groα) (ELISA) from ST-2 cells + IL-17A 10 ng/ml, muPLAD at 3 ug/ml: 6190 pg/mL
  KC (Groα) (ELISA) from ST-2 cells + IL-17A 10 ng/ml, muPLAD at 10 ug/ml: 6130 pg/mL
  KC (Groα) (ELISA) from ST-2 cells + IL-17A 10 ng/ml, muPLAD at 30 ug/ml: 6100 pg/mL
  KC (Groα) (ELISA) from ST-2 cells + IL-17A + TNFa, muPLAD at 3 ug/ml: 6150 pg/mL
  KC (Groα) (ELISA) from ST-2 cells + IL-17A + TNFa, muPLAD at 10 ug/ml: 6460 pg/mL
  KC (Groα) (ELISA) from ST-2 cells + IL-17A + TNFa, muPLAD at 30 ug/ml: 6300 pg/mL

B1: IL-17R PLAD-GSS-FH (recombinant human IL-17R PLAD without the linker, first generation construct) (receptor)
chain: PNITVETLEAHQLRVSFTLWNESTHYQILLTSFPHMENHSCFEHMHHIPAPRPEEFHQRSNVTLTLRNLKGCCRHQVQ
[2]
  GROα (ELISA) from HFF + 5 ng/mL huIL-17A, IL-17R PLAD-GSS-FH at 0.032 ug/mL: 460 pg/mL
  GROα (ELISA) from HFF + 5 ng/mL huIL-17A, IL-17R PLAD-GSS-FH at 0.16 ug/mL: 463 pg/mL
  GROα (ELISA) from HFF + 5 ng/mL huIL-17A, IL-17R PLAD-GSS-FH at 0.8 ug/mL: 471 pg/mL
  GROα (ELISA) from HFF + 5 ng/mL huIL-17A, IL-17R PLAD-GSS-FH at 4 ug/mL: 420 pg/mL
  GROα (ELISA) from HFF + 5 ng/mL huIL-17A, IL-17R PLAD-GSS-FH at 20 ug/mL: 363 pg/mL
  GROα (ELISA) from HFF + 5 ng/mL huIL-17A, IL-17R PLAD-GSS-FH at 100 ug/mL: 300 pg/mL

B2: FN2 domain construct of IL-17RA (lacking FN1 and the linker), expressed on cells (receptor)
chain: PNITVETLDTQHLRVDFTLWNESTPYQVLLESFSDSENHSCFDVVKQIFAPRQEEFHQRANVTFTLSKFHWCCHHHVQV
notes: not shown: transmembrane region, cytoplasmic part and any tag of the construct
[3]
  binding result: no binding

B3: IL-17R PLAD-LINKER-GSS-FH (recombinant human IL-17R PLAD-linker, first generation construct) (receptor)
chain: DCEHARMKVTTPCMSSGSLWDPNITVETLEAHQLRVSFTLWNESTHYQILLTSFPHMENHSCFEHMHHIPAPRPEEFHQRSNVTLTLRNLKGCCRHQVQ
[2]
  GROα (ELISA) from HFF + 5 ng/mL huIL-17A, IL-17R PLAD-LINKER-GSS-FH at 0.032 ug/mL: 437 pg/mL
  GROα (ELISA) from HFF + 5 ng/mL huIL-17A, IL-17R PLAD-LINKER-GSS-FH at 0.16 ug/mL: 541 pg/mL
  GROα (ELISA) from HFF + 5 ng/mL huIL-17A, IL-17R PLAD-LINKER-GSS-FH at 0.8 ug/mL: 460 pg/mL
  GROα (ELISA) from HFF + 5 ng/mL huIL-17A, IL-17R PLAD-LINKER-GSS-FH at 4 ug/mL: 381 pg/mL
  GROα (ELISA) from HFF + 5 ng/mL huIL-17A, IL-17R PLAD-LINKER-GSS-FH at 20 ug/mL: 310 pg/mL
  GROα (ELISA) from HFF + 5 ng/mL huIL-17A, IL-17R PLAD-LINKER-GSS-FH at 100 ug/mL: 315 pg/mL

B4: IL-17RA FN1 domain fused to the Gal4 activation domain (pGADT7) (other, not shown: large carriers)
chain: TPSSPKNIYINLSVSSTQHGELVPVLHVEWTLQTDASILYLEGAELSVLQLNTNERLCVKFQFLSMLQHHRKRWRFSFSHFVVDPGQEYEVTVHHLPKPIPDGDPNHKSKIIFVP
notes: Only the FN1 domain was used; Species is inferred as mouse
[4]
  binding result: no binding

B5: IL-17R PLAD-mod-GSS-FH (recombinant human IL-17R PLAD without the linker, second generation construct) (receptor)
chain: PNITVETLEAHQLRVSFTLWNESTHYQILLTSFPHMENHSCFEHMHHIPAPRPEEFHQRSNVTLTLRNLKGCCRHQVQIQPFFSSCLNDCLRHSATVSCPEMPDTPEPIPDGSSDYKDDDDKGSSHHHHHH
[2]
  GROα (ELISA) from HFF + 5 ng/mL huIL-17A, IL-17R PLAD-mod-GSS-FH at 0.032 ug/mL: 467 pg/mL
  GROα (ELISA) from HFF + 5 ng/mL huIL-17A, IL-17R PLAD-mod-GSS-FH at 0.16 ug/mL: 486 pg/mL
  GROα (ELISA) from HFF + 5 ng/mL huIL-17A, IL-17R PLAD-mod-GSS-FH at 0.8 ug/mL: 484 pg/mL
  GROα (ELISA) from HFF + 5 ng/mL huIL-17A, IL-17R PLAD-mod-GSS-FH at 4 ug/mL: 499 pg/mL
  GROα (ELISA) from HFF + 5 ng/mL huIL-17A, IL-17R PLAD-mod-GSS-FH at 20 ug/mL: 440 pg/mL
  GROα (ELISA) from HFF + 5 ng/mL huIL-17A, IL-17R PLAD-mod-GSS-FH at 100 ug/mL: 411 pg/mL
